In patent US20130243746:

Molecular target: recombinant human acid alpha glucosidase (rhGAA), 110 kDa precursor

B1: recombinant Aspergillus oryzae alkaline protease expressed in Yarrowia lipolytica (strains OXYY2184 and OXYY2122), mature form with linker and His tag (protein)
chain: GLTTQKSAPWGLGSISHKGQQSTDYIYDTSAGEGTYAYVVDSGVNVDHEEFEGRASKAYNAAGGQHVDSIGHGTHVSGTIAGKTYGIAKKASILSVKVFQGESSSTSVILDGFNWAANDIVSKKRTSKAAINMSLGGGYSKAFNDAVENAFEQGVLSVVAAGNENSDAGQTSPASAPDAITVAAIQKSNNRASFSNFGKVVDVFAPGQDILSAWIGSSSATNTISGTSMATPHIVGLSLYLAALENLDGPAAVTKRIKELATKDVVKDVKGSPNLLAYNGNASGGGHHHHHHHHHH
processing of the 110 kDa rhGAA precursor in culture supernatant of the co-expressing strain OXYY2122 (SDS-PAGE and immunoblot): This processing was complete; no 110 kDa form was detected | proteolysis of rhGAA to the 95 kDa form (weight:weight ratio 200:1 total protein:protease, 16 h at 30 C; SDS-PAGE): resulted in a full proteolysis to the 95 kDa product
